Key:
[1] = molecular target: recombinant NA (rNA) of avian A/turkey/Turkey/1/2005 (H5N1): 6xHis-tag, tetrabrachion tetramerization domain, two glycines, NA amino acids 51-449 (Staphylothermus marinus | influenza A virus, avian A/turkey/Turkey/1/2005 (H5N1)); assay: SEC; […], Tris 50 mM, 150 mM NaCl pH 8, CaCl2 10 mM; […]
[2] = molecular target: recombinant NA (rNA) of avian A/turkey/Turkey/1/2005 (H5N1): 6xHis-tag, tetrabrachion tetramerization domain, two glycines, NA amino acids 51-449 (Staphylothermus marinus | influenza A virus, avian A/turkey/Turkey/1/2005 (H5N1)); assay: negative-stain TEM with single-particle 3D reconstruction
[3] = molecular target: recombinant NA (rNA) of swine A/California/07/2009 (H1N1): 6xHis-tag, tetrabrachion tetramerization domain, two glycines, NA amino acids 71-469 (Staphylothermus marinus | influenza A virus, swine A/California/07/2009 (H1N1)); assay: SEC; […], Tris 50 mM, 150 mM NaCl pH 8, CaCl2 10 mM; […]

Row | Substance | stoichiometry N [1] | stoichiometry N [2] | stoichiometry N [3]
1 | recombinant NA (rNA) of avian A/turkey/Turkey/1/2005 (H5N1): 6xHis-tag, tetrabrachion tetramerization domain, two glycines, NA amino acids 51-449 (enzyme) | 4 | 4 | –
2 | recombinant NA (rNA) of swine A/California/07/2009 (H1N1): 6xHis-tag, tetrabrachion tetramerization domain, two glycines, NA amino acids 71-469 (enzyme) | – | – | 4
